Test results taken from PMC3695523, “Reconstitution and characterization of eukaryotic N6-threonylcarbamoylation of tRNA using a minimal enzyme system” (Nucleic Acids Research, 2013).
Residue numbers refer to the chain shown, from its start. Names and notes keep the numbering of the source.

What was measured:
[1] = molecular target: the molecule itself; experiment: crystal structure; Qri7 30-407 at 10 mg/ml, 0.1 M Tris-HCl pH 7.5, 8% PEG8000, 0.2 M MgCl2, 4°C; homodimer by crystallographic symmetry
[2] = molecular target: the molecule itself; experiment: AUC; dimerization dissociation constants of the interface mutants (Supplementary Figure S5B); whether from equilibrium or velocity runs is not stated; 20°C; dimer to monomers
[3] = molecular target: the molecule itself; experiment: AUC; sedimentation velocity, 20°C, 42 000 rpm, 0.3125, 0.0625, 0.125, 0.250, 0.5 or 1 mg/ml protein
[4] = molecular target: the molecule itself; experiment: AUC; sedimentation equilibrium, 20°C, 0.25, 0.5 and 1 mg/ml, 10 000, 12 000, 15 000 rpm; fitted to a monomer-dimer model; dimer to monomers

B1: Saccharomyces cerevisiae Qri7 (amino acids 30-407), crystallised form (enzyme, UniProt P43122 30-407, looked up)
chain: RKGYKVLAIETSCDDTCVSVLDRFSKSAAPNVLANLKDTLDSIDEGGIIPTKAHIHHQARIGPLTERALIESNAREGIDLICVTRGPGMPGSLSGGLDFAKGLAVAWNKPLIGVHHMLGHLLIPRMGTNGKVPQFPFVSLLVSGGHTTFVLSRAIDDHEILCDTIDIAVGDSLDKCGRELGFKGTMIAREMEKFINQDINDQDFALKLEMPSPLKNSASKRNMLSFSFSAFITALRTNLTKLGKTEIQELPEREIRSIAYQVQESVFDHIINKLKHVLKSQPEKFKNVREFVCSGGVSSNQRLRTKLETELGTLNSTSFFNFYYPPMDLCSDNSIMIGWAGIEIWESLRLVSDLDICPIRQWPLNDLLSVDGWRTDQL
modifications: seleno-methionine (a seleno-methionine crystal data set was collected)
notes: One protomer in the asymmetric unit; the homodimer is made by crystallographic symmetry; also called scQri7; not shown: His6, N-terminal, cleaved
B1: binds [1].

B2: Qri7 (30-407) R104A (enzyme, yeast (Saccharomyces cerevisiae), UniProt P43122 30-407, looked up)
chain: B1 chain with R75A
notes: Qri7, S. cerevisiae, amino acids 30-407, dimer interface mutant; also called R104A mutant; source: E. coli BL21 (DE3) CodonPlus, purified (Ni-NTA or glutathione sepharose, SEC)
For B2, the Kd [2] was 3000 ± 300 nM.

B3: Qri7 (30-407) K130A (enzyme, yeast (Saccharomyces cerevisiae), UniProt P43122 30-407, looked up)
chain: B1 chain with K101A
notes: Qri7, S. cerevisiae, amino acids 30-407, dimer interface mutant; also called K130A mutant; source: E. coli BL21 (DE3) CodonPlus, purified (Ni-NTA or glutathione sepharose, SEC)
B3 gave a Kd [2] of 2500 ± 200 nM.

B4: Qri7 (residues 30-407), wild type, as used for analytical ultracentrifugation (enzyme, yeast (Saccharomyces cerevisiae), UniProt P43122 30-407, looked up)
chain: B1 chain
notes: Qri7, S. cerevisiae, amino acids 30-407; also called wild-type Qri7; source: E. coli BL21 (DE3) CodonPlus, purified (Ni-NTA or glutathione sepharose, SEC)
B4 was tested, and the “stoichiometry N” value [3] was 2 and the Kd [4] was 60 nM.

B5: Qri7 (30-407) D43A (enzyme, yeast (Saccharomyces cerevisiae), UniProt P43122 30-407, looked up)
chain: B1 chain with D14A
notes: Qri7, S. cerevisiae, amino acids 30-407, catalytic cleft mutant; source: E. coli BL21 (DE3) CodonPlus, purified (Ni-NTA or glutathione sepharose, SEC)
With B5 the “stoichiometry N” value [3] was 2.

B6: Qri7 (30-407) D44A (enzyme, yeast (Saccharomyces cerevisiae), UniProt P43122 30-407, looked up)
chain: B1 chain with D15A
notes: as for B5
In the case of B6, the “stoichiometry N” value [3] is reported as 2.

B7: Qri7 (30-407) I77E (enzyme, yeast (Saccharomyces cerevisiae), UniProt P43122 30-407, looked up)
chain: B1 chain with I48E
notes: as for B5
With B7 the “stoichiometry N” value [3] was 2.

B8: Qri7 (30-407) R207A (enzyme, yeast (Saccharomyces cerevisiae), UniProt P43122 30-407, looked up)
chain: B1 chain with R178A
notes: as for B5
In the case of B8, the “stoichiometry N” value [3] is reported as 2.

B9: Qri7 (30-407) S258A (enzyme, yeast (Saccharomyces cerevisiae), UniProt P43122 30-407, looked up)
chain: B1 chain with S229A
notes: as for B5
For B9, the “stoichiometry N” value [3] was 2.
